According to patent publication US20260184782A1 (TWIST BIOSCIENCE, published 2026):
Positions count from the first letter of the chain named.

T1: human TIGIT-Fc (human, UniProt Q495A1 22-141, limits assumed)
T1 construct: not shown: Fc; not described
T1 sequence (looked up): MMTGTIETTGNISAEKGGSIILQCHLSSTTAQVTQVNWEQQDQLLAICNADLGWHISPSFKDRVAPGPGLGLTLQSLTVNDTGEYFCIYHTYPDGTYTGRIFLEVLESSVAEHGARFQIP

T2: TIGIT (UniProt Q495A1 22-141, limits assumed)
T2 construct: construct not described; also called T cell immunoreceptor with Ig and ITIM domains
T2 sequence (looked up): T1 sequence (looked up)

B1: TIGIT-SC152 (Fc fusion)
VHH: EVQLVESGGGLVQPGGNLRLSCAASGSTFSKHHAMGWFRQAPGKEREFVAGIIRSGTLKAYADSVKGRFTISADNSKNTAYLQMNSLKPEDTAVYYCTRGRAARHNLWYFDLWGQGTLVTVSS
notes: VHH-Fc
B2: TIGIT-SC193 (Fc fusion)
VHH: EVQLVESGGGLVQPGGSLRLSCAASGFTFSDYWMGWFRQAPGKEREFVAAISRSGTLKAYADSVKGRFTISADNSKNTAYLQMNSLKPEDTAVYYCARGSGWPKIHFDYWGQGTLVTVSS
notes: VHH-Fc
B3: TIGIT-29-06 VHH-V5-His (VHH)
VHH: EVQLVESGGGLVQAGGSLRLSCAASGGTFRSYVMGWFRQAPGKEREWVATINSSGSRTYYADSVKGRFTISADNAKNTVYLQMNSLKPEDTAVYYCAARPNYRDYEYWGQGTQVTVSS
notes: not shown: V5 and His tags
B4: TIGIT-30-20 VHH-V5-His (VHH)
VHH: EVQLVESGGGLVQAGGSLRLSCAASGPTFSIYDMGWFRQAPGKEREFVAVINWSRGSTFYADSVKGRFTISADNAKNTVYLQMNSLKPEDTAVYYCAAGVWSSLRHTAANWGQGTQVTVSS
notes: not shown: V5 and His tags
B5: TIGIT-SC57 (Fc fusion)
VHH: EVQLVESGGGLVQPGGSLRLSCAASGNTFSGGFMGWFRQAPGKEREWVASVLRGGYTWYADSVKGRFTISADNSKNTAYLQMNSLKPEDTAVYYCTTYRGWGQGTLVTVSS
notes: VHH-Fc
B6: TIGIT-30-30 VHH-V5-His (VHH)
VHH: EVQLVESGGGLVQAGGSLRLSCAASGGTFSGRGMGWFRQAPGKEREWVSSVYIFGGSTYYADSVKGRFTISADNAKNTVYLQMNSLKPEDTAVYYCANSNKPKFDWGQGTQVTVSS
notes: not shown: V5 and His tags
B7: TIGIT-29-18 VHH-V5-His (VHH)
VHH: EVQLVESGGGLVQAGGSLRLSCAASGSTFSNYAMGWFRQAPGKEREFVSAINSSGSRTYYADSVKGRFTISADNAKNTVYLQMNSLKPEDTAVYYCAARLWGTWTAGDYDYWGQGTQVTVSS
notes: not shown: V5 and His tags
B8: TIGIT-29-34 VHH-V5-His (VHH)
VHH: B7 VHH with S27F, S30R, A50S, N52S, G55S, Y59S
notes: not shown: V5 and His tags
B9: TIGIT-29-22 VHH-V5-His (VHH)
VHH: B7 VHH with T28I, F29L, N31S, A33T, A50T, N52S, S53R, G55S, S56T
notes: not shown: V5 and His tags
B10: TIGIT-SC51 (Fc fusion)
VHH: EVQLVESGGGLVQPGGSLRLSCAASGRTEANYAMGWFRQAPGKEREFVAAISWDGGATAYADSVKGRFTISADNSKNTAYLQMNSLKPEDTAVYYCGDYEGHWGQGTLVTVSS
notes: VHH-Fc
B11: TIGIT-SC68 (Fc fusion)
VHH: B10 VHH with R27H, E29F, A30R, N31G, F47A, D54S, G56D, A57N, A59Y
notes: VHH-Fc
B12: TIGIT-30-52 VHH-V5-His (VHH)
VHH: EVQLVESGGGLVQAGGSLRLSCAASGRTFSNYFMGWFRQAPGKERESVATVTWRDNITYYADSVKGRFTISADNAKNTVYLQMNSLKPEDTAVYYCASAGRWGQGTQVTVSS
notes: not shown: V5 and His tags
B13: TIGIT-29-10 VHH-V5-His (VHH)
VHH: EVQLVESGGGLVQAGGSLRLSCAASGRTFSNYGMGWFRQAPGKEREFVSGISGSGGRTSYADSVKGRFTISADNAKNTVYLQMNSLKPEDTAVYYCAANLWYPVDRLNTGFNYWGQGTQVTVSS
notes: not shown: V5 and His tags
B14: TIGIT-SC65 (Fc fusion)
VHH: EVQLVESGGGLVQPGGSLRLSCAASGFTFGNYDMGWFRQAPGKEREFVAAITGSGRSTYYADSVKGRFTISADNSKNTAYLQMNSLKPEDTAVYYCARGRIAASGTKVYWYFDLWGQGTLVTVSS
notes: VHH-Fc
B15: TIGIT-29-01 VHH-V5-His (VHH)
VHH: EVQLVESGGGLVQAGGSLRLSCAASGRTFSNYAMGWFRQAPGKEREFVAAITWSGTRTDYADSVKGRFTISADNAKNTVYLQMNSLKPEDTAVYYCAAAAWTIYEYDYWGQGTQVTVSS
notes: not shown: V5 and His tags
B16: TIGIT-29-07 VHH-V5-His (VHH)
VHH: B15 VHH with R27S, T28I, A50T, T52S, W53R, S54G, D59N, E105A, D107N
notes: not shown: V5 and His tags
B17: TIGIT-29-30 VHH-V5-His (VHH)
VHH: B15 VHH with R27F, N31S, T102R, I103Y, Y104S
notes: not shown: V5 and His tags
B18: TIGIT-29-12 VHH-V5-His (VHH)
VHH: B15 VHH with R27S, N31S, D59N, E105T, Y108S
notes: not shown: V5 and His tags
B19: TIGIT-29-33 VHH-V5-His (VHH)
VHH: B15 VHH with R27F, T28I, N31T, F47L, A49S, W53R, T56I, R57T, D59Y
notes: not shown: V5 and His tags
B20: TIGIT-30-15 VHH-V5-His (VHH)
VHH: EVQLVESGGGLVQAGGSLRLSCAASGFTFSGNWMGWFRQAPGKEREWVSGISSGGGRTYYADSVKGRFTISADNAKNTVYLQMNSLKPEDTAVYYCAADVWYGSTWRNWGQGTQVTVSS
notes: not shown: V5 and His tags
B21: TIGIT-SC67 (Fc fusion)
VHH: EVQLVESGGGLVQPGGSLRLSCAASGFTFDRSWMGWFRQAPGKEREWVSTIYSNGTPAYADSVKGRFTISADNSKNTAYLQMNSLKPEDTAVYYCARRGLPSYSYGMDVWGQGTLVTVSS
notes: VHH-Fc
B22: TIGIT-SC64 (Fc fusion)
VHH: EVQLVESGGGLVQPGGSLRLSCAASGFAFSNFGMGWFRQAPGKERELVSAIGWSGASTYYADSVKGRFTISADNSKNTAYLQMNSLKPEDTAVYYCARRGRTIPFDYWGQGTLVTVSS
notes: VHH-Fc
B23: TIGIT-30-49 VHH-V5-His (VHH)
VHH: EVQLVESGGGLVQAGGSLRLSCAASGNIFSRYIMGWFRQAPGKEREWVAGISNGGTTKYADSVKGRFTISADNAKNTVYLQMNSLKPEDTAVYYCAQGWKIVPTNWGQGTQVTVSS
notes: not shown: V5 and His tags
B24: TIGIT-SC149 (Fc fusion)
VHH: EVQLVESGGGLVQPGGSLRLSCAASGFTLENNMMGWFRQAPGKEREFVAAISRSGTLKAYADSVKGRFTISADNSKNTAYLQMNSLKPEDTAVYYCAKVQGPYCSGGSCYLYTFDLWGQGTLVTVSS
notes: VHH-Fc
B25: TIGIT-SC151 (Fc fusion)
VHH: EVQLVESGGGLVQPGGSLRLSCAASGFPFSIYPMGWFRQAPGKEREFVAAISASGTLRAYADSVKGRFTISADNSKNTAYLQMNSLKPEDTAVYYCARSSSWVRIFDYWGQGTLVTVSS
notes: VHH-Fc
B26: TIGIT-SC82 (Fc fusion)
VHH: EVQLVESGGGLVQPGGSLRLSCAASGSMSSNYAMGWFRQAPGKEREFVAAIDWSGGNTYYADSVKGRFTISADNSKNTAYLQMNSLKPEDTAVYYCAKWFYYGSGLYTLDVWGQGTLVTVSS
notes: VHH-Fc
B27: TIGIT-SC83 (Fc fusion)
VHH: B26 VHH with S27R, M28T, S29F, N31D, Y32D, D52S, W53R
notes: VHH-Fc
B28: TIGIT-30-43 VHH-V5-His (VHH)
VHH: EVQLVESGGGLVQAGGSLRLSCAASGFTFSTSWMGWFRQAPGKERELVAARNSGGNTNYADSVKGRFTISADNAKNTVYLQMNSLKPEDTAVYYCAADVWYGSTWRNWGQGTQVTVSS
notes: not shown: V5 and His tags
B29: TIGIT-30-40 VHH-V5-His (VHH)
VHH: B28 VHH with T31G, S32N, L47W, A49V, A50G, R51I, N52S, N56S, N58H
notes: not shown: V5 and His tags
B30: TIGIT-30-01 VHH-V5-His (VHH)
VHH: B28 VHH with T28A, T31S, S32Y
notes: not shown: V5 and His tags

Assays:
human TIGIT-Fc [1] = target: T1, human TIGIT-Fc; assay: CD155 competition ELISA, single point; note: test concentration or dose not given here
Procedure: (§1) TIGIT/CD155 inhibition of VHH-Fcs were assessed using an ELISA assay (Table 10B). Briefly, human TIGIT-Fc was coated on a plate & then incubated with VHH-Fcs and human CD155-biotin. Bound CD155-biotin was detected using a streptavidin-HRP conjugate visualized with TMB. Strong inhibitors from the single point screen were titrated to determine EC50 (Table 10C).

human TIGIT-Fc [2] = target: T1, human TIGIT-Fc; assay: CD155 competition ELISA, titration
Procedure: as §1

TIGIT [3] = target: T2, TIGIT; assay: SPR, VHH-V5-His
TIGIT [4] = target: T2, TIGIT; assay: SPR, VHH-V5-His; unit inferred

Row | Binder | OD (450 nm) (human TIGIT-Fc [1]) [OD] | EC50 (human TIGIT-Fc [2]) [nM] | RU (TIGIT [3]) [RU] | Kd (TIGIT [4]) [nM]
1 | B1 | 0.259 | 13.4 |  | 
2 | B2 | 0.151 | 4.39 |  | 
3 | B3 |  |  | 26100 | 
4 | B4 |  |  | 69 | 195
5 | B5 | 0.0807 | 1.53 |  | 
6 | B6 |  |  | 3 | 
7 | B7 |  |  | 157 | 352
8 | B8 |  |  | 167 | 967
9 | B9 |  |  | 123 | 500
10 | B10 | 0.129 | 3.47 |  | 
11 | B11 | 0.607 | 6.52 |  | 
12 | B12 |  |  | 270 | 
13 | B13 |  |  | 36 | 323
14 | B14 | 0.0846 | 4.09 |  | 
15 | B15 |  |  | 88 | 365
16 | B16 |  |  | 26 | 465
17 | B17 |  |  | 77 | 232
18 | B18 |  |  | 464 | 8580
19 | B19 |  |  | 202 | 
20 | B20 |  |  | 66 | 215
21 | B21 | 0.149 | 1.23 |  | 
22 | B22 | 0.197 | 9.58 |  | 
23 | B23 |  |  | 99 | 945
24 | B24 | 0.263 | 11.9 |  | 
25 | B25 | 0.206 | 4.14 |  | 
26 | B26 | 0.25 | 4.08 |  | 
27 | B27 | 0.241 | 4.36 |  | 
28 | B28 |  |  | 407 | 107
29 | B29 |  |  | 113 | 222
30 | B30 |  |  | 664 | 7460
